Data: paper PMC8799719 (2022)
Like-named read-outs stand apart in the source and are kept apart here.

Assays:
[1] = target: T1, triple-helical peptide (THP) [(POG)10]3 (synthetic construct, O of each POG triplet, as printed in (POG)10); assay: ITC
[2] = target: T1, triple-helical peptide (THP) [(POG)10]3; assay: ITC; remark: listed apart in the source

| Binder | Kd [1] [µM] | Kd [2] [µM] |
| --- | --- | --- |
| ColG-activator domain (domain or fragment) YDFEYLNGLSYTELTNLIKNIKWNQINGLFNYSTGSQKFFGDKNRVQAIINALQESGRTYTANDMKGIETFTEVLRAGFYLGYYNDGLSYLNDRNFQDKCIPAMIAIQKNPNFKLGTAVQDEVITSLGKLIGNASANAEVVNNCVPVLKQFRENLNQYAPDYVKGTAVNELIKGIEFDFSGAAYEKDVKTMPWYGKIDPFINELKALGLYGNITSATEWASDVGIYYLSKFGLYSTNRNDIVQSLEKAVDMYKYGKIAFVAMERITWDYD | 3.28 |  |
| recombinant activator domain of VhaC (domain or fragment) SAEQAANVCDVEAFTSNSSNDVLNAIKTQGASCVNALFSAESRIQEAAFESGHMYNIAKHTTDLAKAYAGGGSDELEALFLYLRAGYYAEFYNSKVSFLSWVTPAVKEAVDAFVNNANFYENSDPHGKVLSEVIITMDSAGLQHAYLPQVTQWLTRWDSQYAQNWYMRNAVNGVFTILFGGQWNEQFVQTIGNQTELAKALGDFALRSSAIGASDEFMAANAGRELGRLTKYSGSASSTVKSKLTEIFAQYEMYGRGDAIWLGAADTVSYYADCSDY |  | 82.8 |
